# According to patent CN107043423A (JIANGSU HENGRUI MEDICINE CO; SHANGHAI HENGRUI …, dated 2017):
# Where a chain is given by its changes, count along the chain named.
# B1: 人源化抗体H1512-8 (antibody, human IgG4 S228P, kappa, V domains shown)
# VH: EVQLVESGGGLVQPGGSLRLSCAASGFTVSNYDMSWVRQAPGKGLEWVSMIETDGSIFHASWVNGRFTISRDNSKNTLYLQMNSLRAEDTAVYYCARGSNDYDAYGYPYFTLWGQGTLVTVSS
# VL: ELVLTQSSSASASLGSSVKLTCTLSSAHETYTIDWYQQQPGKAPRYLMELKSDGSYNKGAGVPDRFSGSSSGADRYLTISNLQLEDEATYHCGADFSDGYVFGGGTKVEIKR
# notes: Humanized antibody
# B2: 人源化抗体H1512-1 (antibody, human IgG4 S228P, kappa, V domains shown)
# VH: B1 VH
# VL: B1 VL with E1Q, L2P, Y36H, E49K, T89D, H91Y
# notes: Humanized antibody
# B3: 人源化抗体H1512-12 (antibody, human IgG4 S228P, kappa, V domains shown)
# VH: B1 VH with V48I, S49G, R71K, L78V, Y94F, A96V
# VL: B1 VL with E1Q
# notes: Humanized antibody; also called 抗凝血酶抗体H1512-12
# How the values were obtained:
# 带His标签的人凝血酶 [1] = target: T1, 带His标签的人凝血酶 (human, UniProt P00734 328-622); test: ELISA, biotinylated His-tagged human thrombin on streptavidin plate
# 带His标签的人凝血酶 [2] = target: T1, 带His标签的人凝血酶; test: BIAcore SPR, antibody captured by anti-human capture antibody on CM5 chip, His-tagged thrombin in flow
# 带His标签的人凝血酶原 = target: T2, 带His标签的人凝血酶原 (human, UniProt P00734 44-622); test: BIAcore SPR, antibody captured by anti-human capture antibody on CM5 chip, His-tagged prothrombin in flow
# T2 construct: Zymogen precursor of thrombin, expressed in HEK293E; also called h-prothrombin-his; 人Pro凝血酶
binder,measurement,setting,value
B1,EC50,带His标签的人凝血酶 [1],19.3 nM
B2,EC50,带His标签的人凝血酶 [1],43.4 nM
B3,EC50,带His标签的人凝血酶 [1],0.16 nM
same,Kd,带His标签的人凝血酶 [2],2.79 nM
same,Kd,带His标签的人凝血酶原,26.4 nM
